Data on 16 sequences can be found in a protein production outcome set (Wang et al. 2014).

The data set is described as follows: label from the status in PepcDB records.

On to “MTVAFASDQRLENGAEQLESLRRQMALLSEKVSGGPSRSGDLVPAGPVSLPPGTVGVLSGARSLLLSMVASVTAAGGNAAIVGQPDIGLLAAVEMGADLSRLAMIPDPGTDPVEVAAVLIDGMDLVVLGLGGRRVTRARARAVVARARQKGCTLLVTDGDWQGVSTRLAARVCGYEITPALRGVPTPGLGRISGVRLQINGRGR”, for which the protein production result was “failed”.

“MTVEPFRNEPIETFQTEEARRAMREALRRVREEFGRHYPLYIGGEWVDTKERMVSLNPSAPSEVVGTTAKAGKAEAEAALEAAWKAFKTWKDWPQEDRSRLLLKAAALMRRRKRELEATLVYEVGKNWVEASADVAEAIDFIEYYARAALRYRYPAVEVVPYPGEDNESFYVPLGAGVVIAPWNFPVAIFTGMIVGPVAVGNTVIAKPAEDAVVVGAKVFEIFHEAGFPPGVVNFLPGVGEEVGAYLVEHPRIRFINFTGSLEVGLKIYEAAGRLAPGQTWFKRAYVETGGKDAIIVDETADFDLAAEGVVVSAYGFQGQKCSAASRLILTQGAYEPVLERVLKRAERLSVGPAEENPDLGPVVSAEQERKVLSYIEIGKNEGQLVLGGKRLEGEGYFIAPTVFTEVPPKARIAQEEIFGPVLSVIRVKDFAEALEVANDTPYGLTGGVYSRKREHLEWARREFHVGNLYFNRKITGALVGVQPFGGFKLSGTNAKTGALDYLRLFLEMKAVAERF”: the protein production entry is “not failed”.

As for “MTVETFHPKQTTTLETPAKTLEAASADSVNTGNVATGNRIGFVSLGCPKNLVDSERILTQLRIDGYEVTNSYDNADLVIVNTCGFIDAAVEESLDAVREALEENGKVIVTGCLGAKENQIREVHPDVLEITGPHSYEAVLKHVHKYVPKPEHNPFTSLIPQTGVKLTPKHYAYLKISEGCDNRCTFCIIPALRGDLDSRGAGSVLDEAKRLVEAGVQEILVVSQDTSAYGKDKGGRTDFWNGMPVKQDITSLARQLGKMGAWVRLHYIYPYPWVDDLIPLMAEGLILPYLDIPMQHASPRILKMMKRPGRVDRQLEAIQRWREICPDLVIRSTFIVGFPGETEEDFEMLLDFLREARLDRVGCFKYSEVEGAVANTIAELISEEVKEDRYHRFMEVQAEISAERLARFVGRTMDILIDDVDEEGAIGRSFADAPEIDGMVFINGETELEPGMLVRAVITHSDEHDLWAELVDADAEDEVEALEHHHHHH”, the protein production result is on record as “not failed”.

With “MTVKAVFFDIDGTLLNDRKNIQKTTQKAIQQLKKQGIMVGLATGRGPGFVQPFLENFGLDFAVTYNGQYILTRDKVLYQNQLPKSMIYKVIRYANEKKREISLGTASGLAGSRIIDMGTSPFGQVISSFVPKSWARTVEGSFKHLIRRIKPQSFRNLVTIMREPIYQVVLVASQAETKKIQEKFPHIKITRSSPYSLDLISVDQSKIKGIERLGEMFGFDLSEVMAFGDSDNDLEMLSGVGIGIAMGNAETVVKDGAHFTTDSNNNDGISKALAHYGLIH”, the protein production result is “failed”.

Take “MTVQSGELRPNLIALKTIVYREVHRFMRIWPQTLLPPAITMVLYFVIFGNLIGRQIGDMGSFTYMQYIVPGLIMMSVITNSYGNVVSSFFGAKFQHSIEELMVSPVSPHTILIGYTLGGVLRGLMVGFIVTMLSMFFTDLQVHHLGVTIVVVVLTATIFSLLGFINAVFARNFDDISIIPTFVLTPLTYLGGVFYSINLLPPFWQTVSLANPVLHMVNAFRYGILGVSDIKISIALAFMIVATFVLYFGCARLLVSGRGMRQ”: the protein production result was “failed”.

On to “MTVRYFAAAAAAAGIETESLEIATGTSVAELVERLGARNPELARVLKRCSYLCDEVAVRDMAKPLVTPQTVDVLPPFAGGLEHHHHHH”, for which the protein production entry is reported as “failed”.

Take “MTVTAPNALNFECETGNYHTFCPISCVAWLYQKIEDSFFLVIGTKTCGYFLQNAMGVMIFAEPRYAMAELEEGDISAQLNDYEELKRLCLEIKRDRNPSVIVWIGTCTTEIIKMDLEGLAPKLEAEIGIPIVVARANGLDYAFTQGEDTVLAAMAARCPTSTAISDPEERNPIQRLLNFGKKKEEVQAQSSQYHPHPPLVLFGSLPDPVVTQLTLELKKQGIKVSGWLPAKRYTELPVIDEGYYVAGVNPFLSRTATTLIRRRKCQLITAPFPIGPDGTRTWIEQICATFGIQPQGLAEREAETWQKLSDYLELVRGKSVFFMGDNLLEISLARFLIRCGMRVLEIGIPYMDKRYQAAELALLSQTCAEMGHPLPTIVEKPDNYNQLQRIKALQPDLVITGMAHANPLEARGISTKWSVEFTFAQIHGFGNARDILELVTRPLRRNQALAGLGWQKLVAH”: the protein production entry is listed as “not failed”.

As for “MTVTNMTEWFAKGVEALHHDHVYLARACFEQAVTEQRSPLSSSYLALCQAKTRGTFSDAIASAREAVAADPANPALYHNLGCIYLLAGKRTEAIETFRQGLRVGLEHHHHHH”, the protein production result is reported as “not failed”.

As for “MTVVSVDKDVEALSFSIVAEFDADVKRVWAIWEDPRQLERWWGPPTWPATFETHEFTVGGKAAYYMTGPDGTKARGWWQFTTIEAPDHLEFDDGFADEHGAPVDELGVTHATVKLEPLENRTRMTIISTFESEEQMQKMAEMGMEEGMREAIEQIDAVLSEPANALEHHHHHH”, the protein production entry is given as “not failed”.

For the sequence “MTWLLIFASLAYVIFLFAVATWGDRLGSWANKISHKPVVYSMSLAIYCTSWTYYGAVGNAAVDGWAFFPILLGPILLFLFGIRILEKLVSVSKQQNITSIADFISSRFGKRRRLAVAVTAIAAVAIIPYIALQLKAVGISFAVLTESSGVMAQFSIKELGAAALMAIFAMLFGTRHVEVTEYRSGMILAIAVESMIKLVALLAAGVFAWFLIQGDAQSDLFSSFSDATKPQWSFAAFGEFEFIVQTLMAAGAILCLPRQFHVAVVDNVDVRHLRTARWGFPLYLALTAAAIVPIAIAGTFYLSATTDGSTFALQLPLLKDQLWLSLVIFIGGISAATAMVIIASVTLSTMITNDVIMPILLQRESRLPLKHRRREYDRALLLIRRVAIAVTMVLSFLCYYFWAARTNLVSIGLLAFSLVLQLLPALLAALYWRKGHARGVYAGLAAGSVGWVLAVLIPLYTDLQLTDVEIITRGTVVSLALNCFGFIVFSLLAKPRLVDRIQATAFVKPRAALPDLHFNKNDSATNADMLLLLRTFLGAERAQQLMQYYQRPENTELPLEGVAEKTFISFVERAIAGVLGSATARSLVDAALRDKQLNLEEVVHFFDDTTQALQTQQSILFSSLENLAQGISVVDAELRLVAWNKRYMDLFQYPEGMVKPGQPIATLIRYNAERGECGPGDVDGLVNKRLRYMQLGSAHRFIRRRADGRVIEMVGNPLPTGGFVTSFTDITSHVETQQALEDANIDLEQRVDVRTQEIREINQELTAEIDRRRQVEDELKKAKAEAEATNASKTRFLALASHDILQPLNAARLYLSAIQEKELSERNLSLVGKLDTALGSTEHLLSTLLSIAKMDQGALKPQFRHVQLSSLLEPLVEEYAVLAEQRKLDFRAFYKDRPVYTDPTYLRRIVQNFLSNAIKYTQRGSVLLGVRKRGDELQIAVWDTGPGIAAQQQNKVFDAFYRVQNQTVDGVGLGLSVAQRMGEQLNCDVQVESVEGKGSCFSVRVPLGNAAQVVSRPKKQLEDALSDPLQLIVVDDDNENLSALSALLNKWGCEALTFNRYSKALAYAKAHSQNKAPHGLLLDYQLGDGDGLQLAQELRDIWQQQIPAALVTAMRDDAVKQAARKSGLQFLPKPAKPAALKAFLKYISTRKAGGARS”, the protein production entry is “failed”.

As to “MTWLMVAVVVVVAAAGLLRWRRPAWYWLTFGALVATVRILVRYASVMEACGLTVPPSRWRLALARMTNRPAPESRPPRILRLRPTRTGLVLRLKLQPGQDAFDVAAATDRLRHSFGVYGVTSRELRSGVVEVRMTGYDVLQRVQMPAPAEPRPMRIPVALREDGAVHYRDYRAVPHGLTLGATESGKSVYQRNLVAGLAPHHVALVGIDCKQGVELFPLARRFSALADNPDTALDLLEALVGHMKDVYQLIRAEQRISVAVPDAEIAADIWDLREDLRAVPVVVLVDEVAELALFASKDEEKRRDRIITALVRLAQLGRAAGIYLEICGQRFGSELGKGITMLRAQLTGRTAHRVNDETSADMAFGDLSPDAVLAAIQLPTDTPGIAVTGDSTGGWARIRAPHTTKSFPDRQKRLAELWLIEIASDMSRGRYVDPRAARVTFKGYAVKWLETHGIDPASQVVVEQRLRLHAFRLIGSRPLDSFRPEHIRGLVSALENDPAVSGGYARNIYGDVRAVLSAAVDDGLLPRNPCSAKSVRPPAVEQRRVVPWLPEQVQAVRAALPQRYRPMVDMGAGCGLRQGEIVGLAEDAVDFASGIVRVLRQVKLIRGKAVFAPPKCNKERDVPLPPSVADALPAHMDAFKPVEITLPWRKPDGPKVSARLLFTNTASGLVWRSNFNVQEWKPALAAAGLISEAGADGKYESAREHGMHALRHFYASVLLDAGESIKAVSEYLGHADPGLTLRVYAHLMPSSQERTRSAIDQSLRFSG”, the protein production entry was “failed”.

Consider “MTWRKLSICMMVKDEEKNLKRCLESLKPILKGDEVELIVVDTGSKDRTVEIAKQYTNNIFYKPWNYNFSEMRNYTISLAKGEWIFILDADEELEDAKIILKEIEMAEKEGANAINIAVKNLVEENNKQNFVFGFSPRLFRNGFIKYEGAVHNQPIFRPPIYNSKIVIYHYGYIMNDTKLMEYKYKRTVSLLKKELEKDPLNIYYRYQLGVSYSMYGKIREAIEEFGKVYNLLKMENSEIKKGLVVVYGLYANNLLLLGLFDKALEVAEEGLNFNDEYIDLYYIAGLSLYAMGRRQEALVYFKKYMDLFKKVDQIKLLYDARVVFYNISNSYFDNVNAMVVQYLLDINNFLEAKVHIEQFKDNKLKLQYSTLLHIKEKNFNELFDFYSSCNQEDKEKVSEFIEKYITYFKFDEDERLEIYKKFSESNDVYGKYCCIITKKEKVESAILNIFDSNVFELLPSFYTKVLFRVAEKKEFLLETLKKIDVMVLRAKTAEALAAKFIDFEDVIQLLEVMKKEKADIDISARYIALALLVLLNFPRQSDERLYEIFLNYTENGILLISRLYKSEEIEEKYRYFLSEEEKYFALMYMIYLSLQEKRMDKSIKYLREAISTMPKLVKHLKRFSKDILGVDV”, for which the protein production result is listed as “failed”.

With “MTWSHWEITPFITSVFFILGVLTLFWVSQNWIINFFNTHHWRVDQSLITDWYGLIYMMLFVFGMQTAVVGQNDAWIFMNFQLIGLTFCGYFLNVRVRYYYLYPLVFIFMGFNHSLYYWESWGHAVTLILFFTALGRLRKHVPLQTKQGQVTLYLVTCAGFGAVLWWFMKLKFNLSWATYWQEWTYLLVFASLLYIYASMLSANAHLKQNLVAFANHDALTKIENFAAYKTAINYQVTSSRKNGSQLTMLMFDIDHFKQVNDTYGHLAGDKILQHVAQVATIVFHANNPQISLYRTGGEEFNVIFPNYDLTEALAVAEQLFAAINHIAVPVNDHQIQLSISIGLSELAADDQSPTAFYQRVDANLYHSKKHGRMQITAK”, the protein production entry is on record as “failed”.

As to “MTYCVAMRLDAGLVFLSDSRTNAGVDAISTFRKMTVFEREGDRVMVLLTAGNLAISQAVRQVLTEARDKARSLWTARDMFEATTIVGEAVREVYDRDAAALAKAKIDFNVSIIFGGQIGGERPRLFNVYAAGNFIEATPENCYFQIGEAKYGKPIIDRLIRASLPLDEAAKCALISMDSTLKSNISVGLPLDLLVYEADSLRVTRFVAIDEENPYFAMIRSTWGKRLRQVFAEIEDPDWQTGTHPAHPLRRAGHPTAEVEPVRIAPPAAPPAAEGAAVPQRAPGPAFGQGAAAQRVAGGSHEPH”, the protein production result is given as “failed”.

“MTYDLTVIIPVYNTEKYLRRCLESIVNQDDIEQCSIKVICINDGSTDESRKIIEEFVEKYSYIEIFNKENGGLADVRNTGLQFINDSLYTVSLDSDDFWDKSFLTEFNKYKSSNYDLIFFDINLVDCDGNPVKELIVNPKFDKYNKKKDFMVVKHAAWSKICRTNLYDNINFPKGKLYEDLAVMPYLTSRAERIHYIQKPLINYVINTPGSIMNSSKSNIFDIYDSLIHLFNLFGNHFEKYRNELQYLAIEHLCVGHTYRLLNYPEATKQDFKDIVIFMEKYFGKHWDKNKYVKRGVQKVNINSSLSYVVPVFLKFLKYGGIIKLYDIKRVLLSKK”: the protein production entry is recorded as “failed”.

As for “MTYEIVIAGFGGQGVLSMGKILAYSGLMEDKEVSWMPSYGPEQRGGTSNVTVIVSDEQVSSPVLNEYDIVIVLNQPSLDKFEARVKKGGILVYDPDSIVLKNKRDDIQIYEVDATQESLRMGNQK”, the protein production entry is “failed”.
